Reference: patent US20210355185A1 (Xencor, published 2021)
Numbering of substitutions follows the chain as printed. Names may count otherwise.

B1: XENP28536 (antibody, human IgG1, kappa, V domains shown)
VH: EVQLVESGGGLVQPGGSLRLSCAASGFTFSSFGMHWVRQAPGKGLEWVSYISSGSSIIYYADSVKGRFTISRDNAKNSLYLQMNSLRAEDTAVYYCARGGRLVWSPDYWGQGTLVTVSS
VL: DIVMTQSPDSLAVSLGERATINCKSSQSLLNSGNQKNYLTWYQQKPGQPPKLLIYWASTRESGVPDRFTGSGSGTDFTLTISSLQAEDVAVYYCQNDYSYPFTFGSGTKLEIKR
notes: Format is bivalent human IgG1 with E233P/L234V/L235A/G236del/S267K; also called mAb C; mAb C[PD-1]_H1L1
B2: mAb C[PD-1]_H1_L1.1 (antibody, IgG1, V domains shown)
VH: B1 VH
VL: DIVMTQSPDSLAVSLGERATINCKSSQSLLHSGNQKNYLTWYQQKPGQPPKLLIYWASTRESGVPDRFTGSGSGTDFTLTISSLQAEDVAVYYCQNDYSYPFTFGSGTKLEIK
B3: mab_C[PD-1]_H1_L1.3 (antibody, IgG1, V domains shown)
VH: B1 VH
VL: B2 VL with H31S

How the values were obtained:
human PD-1-His = target: T1, human PD-1-His (human, UniProt Q15116 25-167, limits assumed); test: Octet BLI; antibody captured on anti-human Fc (AHC) biosensors, dipped into PD-1-His
T1 construct: not shown: His tag
T1 sequence (Q15116 25-167 limits assumed): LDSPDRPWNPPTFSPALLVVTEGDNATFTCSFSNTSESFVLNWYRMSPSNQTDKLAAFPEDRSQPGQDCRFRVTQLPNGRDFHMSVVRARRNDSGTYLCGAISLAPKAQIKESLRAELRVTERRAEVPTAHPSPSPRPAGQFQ

PD-1-His = target: T2, PD-1-His (UniProt Q15116 25-167, limits assumed); test: Octet affinity screen; bivalent IgG1 format
T2 construct: Captured on HIS1K biosensors; not shown: His tag
T2 sequence (Q15116 25-167 limits assumed): as above
Source text: We engineered affinity optimized variants of mAb C. A library of variants was constructed by standard mutagenesis to introduce point mutations into the variable heavy or variable light regions of XENP28536. Illustrative sequences are depicted in FIG. 70A-FIG. 70I (variable domain sequences).

Binder	binding result (human PD-1-His)	fold improved affinity over WT (mAb C[PD-1]_H1L1) (PD-1-His) [fold]
B1	binds	–
B2	–	> 2
B3	–	> 2
